Experimental findings from PMC10783527 are described below.

The target of one data set is T1, NTHL1 (UniProt P78549 1-304).
T1 sequence: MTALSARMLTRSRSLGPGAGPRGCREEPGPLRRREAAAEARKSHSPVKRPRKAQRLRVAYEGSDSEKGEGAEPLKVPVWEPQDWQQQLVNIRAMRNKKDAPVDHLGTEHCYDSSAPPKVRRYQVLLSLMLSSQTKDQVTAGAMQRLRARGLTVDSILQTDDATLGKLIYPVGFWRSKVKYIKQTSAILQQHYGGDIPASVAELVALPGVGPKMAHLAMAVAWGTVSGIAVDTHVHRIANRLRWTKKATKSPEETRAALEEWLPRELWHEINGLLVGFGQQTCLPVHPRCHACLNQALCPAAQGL
As to the kind of experiment: EMSA.

In the next data set the target is BCL11B213-560 (UniProt Q9C0K0 213-560). The data set is described as follows: EMSA.
BCL11B213-560, sequence (Q9C0K0 213-560): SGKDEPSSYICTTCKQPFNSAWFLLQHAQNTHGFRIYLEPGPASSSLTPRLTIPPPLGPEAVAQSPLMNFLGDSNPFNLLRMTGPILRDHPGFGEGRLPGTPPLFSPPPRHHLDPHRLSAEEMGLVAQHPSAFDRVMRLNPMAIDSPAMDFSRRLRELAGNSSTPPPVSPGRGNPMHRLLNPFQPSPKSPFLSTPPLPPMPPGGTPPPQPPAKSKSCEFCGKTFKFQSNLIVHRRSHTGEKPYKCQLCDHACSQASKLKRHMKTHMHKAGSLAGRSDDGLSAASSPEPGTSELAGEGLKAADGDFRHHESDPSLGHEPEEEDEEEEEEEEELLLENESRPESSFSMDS

B1: thymine glycol 32-mer duplex (dsDNA)
DNA 1: CCGGTGCATGACACTGTTACCTATCCTCAGCG
DNA 2: CGCTGAGGATAGGTAACAGTGTCATGCACCGG
modifications: thymine glycol at position 18 of strand 1 (printed X, written T)
As to B1, the binding result with NTHL1 is “binds”; with BCL11B213-560, “no binding”.
